Laboratory results published in article doi:10.1101/2023.06.16.545308 (bioRxiv, 2023).
Read-outs that look alike come from different tables or passages of the source.

Legend:
[1] = biological target: T1, human transporter associated with antigen processing (TAP), heterodimer of TAP1 and TAP2 (human, UniProt Q03518;Q03519); test: cryo-EM structure
[2] = biological target: T1, human transporter associated with …; test: cryo-EM structure; remark: listed apart in the source

T1 sequence (Q03518 whole entry, chain 1 of 2): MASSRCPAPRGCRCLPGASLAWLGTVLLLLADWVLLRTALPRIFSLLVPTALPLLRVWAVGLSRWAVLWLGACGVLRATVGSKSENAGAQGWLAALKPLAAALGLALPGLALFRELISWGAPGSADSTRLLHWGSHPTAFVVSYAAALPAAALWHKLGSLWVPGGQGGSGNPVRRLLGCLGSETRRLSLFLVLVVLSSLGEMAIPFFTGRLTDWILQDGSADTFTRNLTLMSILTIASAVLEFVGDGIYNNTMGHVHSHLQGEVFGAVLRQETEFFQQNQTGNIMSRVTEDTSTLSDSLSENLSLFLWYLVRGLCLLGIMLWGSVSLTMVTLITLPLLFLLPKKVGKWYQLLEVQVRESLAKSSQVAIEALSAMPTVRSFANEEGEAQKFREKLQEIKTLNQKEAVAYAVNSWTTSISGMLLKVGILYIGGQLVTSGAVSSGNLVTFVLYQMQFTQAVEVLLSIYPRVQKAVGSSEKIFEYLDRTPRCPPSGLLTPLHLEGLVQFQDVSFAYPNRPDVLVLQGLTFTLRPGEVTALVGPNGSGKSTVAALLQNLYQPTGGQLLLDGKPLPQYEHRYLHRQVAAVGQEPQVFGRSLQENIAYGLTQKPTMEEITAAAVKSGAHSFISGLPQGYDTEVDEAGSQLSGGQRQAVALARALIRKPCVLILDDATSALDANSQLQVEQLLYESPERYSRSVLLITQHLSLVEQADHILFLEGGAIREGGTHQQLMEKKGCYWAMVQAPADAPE
T1 sequence (Q03519 whole entry, chain 2 of 2): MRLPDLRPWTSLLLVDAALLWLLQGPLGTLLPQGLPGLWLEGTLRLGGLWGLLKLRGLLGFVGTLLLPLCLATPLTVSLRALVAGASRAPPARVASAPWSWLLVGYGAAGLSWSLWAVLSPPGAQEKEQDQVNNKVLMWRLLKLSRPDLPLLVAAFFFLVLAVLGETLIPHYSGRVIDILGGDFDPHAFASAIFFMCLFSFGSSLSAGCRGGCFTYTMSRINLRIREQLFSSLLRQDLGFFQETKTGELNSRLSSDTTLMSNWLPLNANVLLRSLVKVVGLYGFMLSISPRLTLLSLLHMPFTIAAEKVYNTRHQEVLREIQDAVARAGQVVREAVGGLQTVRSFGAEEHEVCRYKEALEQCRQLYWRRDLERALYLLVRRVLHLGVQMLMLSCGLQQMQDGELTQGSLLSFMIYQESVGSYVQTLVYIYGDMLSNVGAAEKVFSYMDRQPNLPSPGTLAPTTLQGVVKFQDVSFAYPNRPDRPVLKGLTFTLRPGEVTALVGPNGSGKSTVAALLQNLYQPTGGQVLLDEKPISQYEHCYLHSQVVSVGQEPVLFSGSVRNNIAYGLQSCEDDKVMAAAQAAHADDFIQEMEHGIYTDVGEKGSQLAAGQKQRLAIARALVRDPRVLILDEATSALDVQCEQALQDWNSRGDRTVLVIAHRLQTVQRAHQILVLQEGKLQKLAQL

Row | Binder | binding result [1] | binding result [2]
1 | ILKEPVHGV [a2 peptide (9-mer presented by HLA-A2)] | binds | –
2 | RRYQKSTEL [b27 peptide (9-mer presented by HLA-B27)] | binds | –
3 | RRYSTEL [b27’’ peptide (7-mer)] | – | binds
